Source: patent US20240400689A1 (ANTENGENE BIOLOGICS, published 2024)
Like-named read-outs stand apart in the source and are kept apart here.

T1: human CD276 protein (human, UniProt Q5ZPR3 29-534)
T1 sequence (looked up): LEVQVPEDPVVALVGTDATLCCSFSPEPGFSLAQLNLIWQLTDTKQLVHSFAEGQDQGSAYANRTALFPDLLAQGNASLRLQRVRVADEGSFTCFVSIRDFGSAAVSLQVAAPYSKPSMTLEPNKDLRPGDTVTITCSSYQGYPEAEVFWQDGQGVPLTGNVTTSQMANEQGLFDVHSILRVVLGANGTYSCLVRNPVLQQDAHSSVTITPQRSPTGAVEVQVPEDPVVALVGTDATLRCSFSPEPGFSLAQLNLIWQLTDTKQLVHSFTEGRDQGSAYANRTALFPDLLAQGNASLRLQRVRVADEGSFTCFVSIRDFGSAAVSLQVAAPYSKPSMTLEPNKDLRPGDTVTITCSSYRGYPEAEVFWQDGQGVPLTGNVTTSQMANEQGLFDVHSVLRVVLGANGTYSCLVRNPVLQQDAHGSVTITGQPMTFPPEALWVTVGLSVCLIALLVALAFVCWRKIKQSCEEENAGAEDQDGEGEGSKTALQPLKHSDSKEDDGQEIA

T2: HUMAN B7H3 (Biacore analyte) (human, UniProt Q5ZPR3 29-461, limits assumed)
T2 construct: also called hB7H3
T2 sequence (looked up): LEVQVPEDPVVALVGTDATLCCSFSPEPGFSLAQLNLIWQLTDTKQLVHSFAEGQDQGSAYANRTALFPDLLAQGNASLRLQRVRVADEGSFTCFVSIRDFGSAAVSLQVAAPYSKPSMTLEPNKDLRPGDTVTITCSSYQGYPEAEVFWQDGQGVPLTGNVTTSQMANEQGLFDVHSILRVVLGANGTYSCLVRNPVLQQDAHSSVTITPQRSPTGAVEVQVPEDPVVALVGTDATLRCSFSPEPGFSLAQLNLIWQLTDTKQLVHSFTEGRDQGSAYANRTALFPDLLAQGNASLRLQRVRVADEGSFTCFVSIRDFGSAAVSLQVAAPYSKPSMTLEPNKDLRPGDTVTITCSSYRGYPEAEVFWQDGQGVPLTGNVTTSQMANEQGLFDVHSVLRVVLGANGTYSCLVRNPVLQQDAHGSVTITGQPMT


How the values were obtained:
human CD276 protein [1] = target: T1, human CD276 protein; experiment: cell-based or functional assay
human CD276 protein [2] = target: T1, human CD276 protein; experiment: cell-based or functional assay; remark: listed apart in the source
[3] = target: T2, HUMAN B7H3 (Biacore analyte); experiment: SPR, Biacore 8K, antibody captured, B7H3 as analyte, 1:1 binding
human CD276 protein [4] = target: T1, human CD276 protein; experiment: FACS on SKOV3 cells
From the text: Sequences of 31 mouse antibodies from Table 5 were selected to generate and produce human IgG1 chimeric antibodies. The binding affinity of these antibodies and bench mark antibody, Enoblituzumab (see U.S. Pat. No. 8,802,091, MGA271, specifically with a construct designated as hBRCA84D-2) and MGC018 (an antibody-drug-conjugate, in which the mAb MGA017 (human IgG1) is conjugated via a cleavable linker to the prodrug seco-DUocarmycin hydroxyBenzamide Azaindole (DUBA), an alkylating agent that can damage DNA in both dividing and non-dividing cells, thereby causing cell death) with human patient derived ovarian cancer cell line, SKOV3, was determined by FACS analysis.
1. Digested cells using Trypsin (1×); Centrifuged the harvested cells at 300 g for 3 min and discarding the supernatant. […] 2. Washed the cells 2 times with FACS buffer by centrifuging at 300 g for 3 min and discarding the supernatant. [0445] 3. […] Kept the cells in dark for FACS analysis.

human CD276 protein [5] = target: T1, human CD276 protein; experiment: cell-based or functional assay; remark: listed apart in the source
[6] = target: T2, HUMAN B7H3 (Biacore analyte); experiment: SPR, Biacore 8K, antibody captured, B7H3 as analyte, 1:1 binding; remark: listed apart in the source

Row | Binder | EC50 of antibody induced ADCC effect on SKOV3 (human CD276 protein [2]) | EC50 (human CD276 protein [4]) | MFI (Max) (human CD276 protein [4]) | Kd [6] | koff [6] | kon [6] | further results
1 | 3-C2-C3-E7 (human IgG1 chimeric antibody) (antibody, V domains shown, human IgG1 chimeric antibody of the mouse clone) VH: EVQLQQSGPELVKPGASVKISCKTSGYTFTENTMHWVKQSHGKRLEWIGGINPNTGGTTYNQKFKGKATLTVDKSSSTAYMELRSLTSEDSAVYYCARRGTNWEHWYFDVWGAGTTVTVSS VL: QIVLTQSPAIMSASPGEKVTMTCSASSSVSYMHWYQQKSGTSPKRWIYDTSKLASGVPARFSGSGSGTSYSLTISSMEAEDAATYYCQQWSSNPLTFGAGTKLELK | 0.186 µg/mL | 1.43 µg/mL | 3700 | – | – | – | –
2 | 10-G6-C4-B2_hVH2-VL1_PTM (antibody, V domains shown, humanized, PTM-optimized antibody from 10-G6-C4-B2) VH: EVQLVESGGGLVQPGGSLRLSCATSGFTLSDYYMSWVRQAPGKGLEWVSFMRNKANAYTTEYSASVRGRFTISRDTSKSTIYLQMNSLRAEDTAVYYCVRDREGRPFAYWGQGTLVTVSS VL: DIVMTQSPDSLAVSLGERATINCKSSQSLLNAINQKNFLTWYQQKPGQPPKLLIYWASTRESGVPDRFSGSGSGTDFTLTISSLQAEDLAVYYCQNDYTYPLTFGQGTKLEIK | – | – | – | 0.851 nM | 7.26e-05 s⁻¹ | 85300 M⁻¹ s⁻¹ | –
3 | 10-G6-C4-B2_hVH3-VL3_PTM (antibody, V domains shown, humanized, PTM-optimized antibody from 10-G6-C4-B2) VH: EVQLVESGGGLVQPGGSLRLSCATSGFTLSDYYMSWVRQAPGKGLEWVGFMRNKANAYTTEYSASVRGRFTISRDTSKSSIYLQMNSLKTEDTAVYYCVRDREGRPFAYWGQGTLVTVSS VL: DIQMTQSPSSLSASVGDRVTITCKSSQSLLNAINQKNFLTWYQQKPGKAPKLLIYWASTRESGVPSRFSGSGSGTDFTLTISSLQPEDLATYYCQNDYTYPLTFGQGTKLEIK | – | – | – | 0.0087 nM | 1.02e-06 s⁻¹ | 118000 M⁻¹ s⁻¹ | –
4 | 10-G6-C4-B2_hVH4-VL2_PTM (antibody, V domains shown, humanized, PTM-optimized antibody from 10-G6-C4-B2) VH: EVQLVESGGGLIQPGGSLRLSCATSGFTLSDYYMSWVRQPPGKGLEWVSFMRNKANAYTTEYSASVRGRFTISRDTSKSTIYLQMNSLRAEDTAVYYCVRDREGRPFAYWGQGTLVTVSS VL: DIVMTQSPLSLPVTPGEPASISCKSSQSLLNAINQKNFLTWYLQKPGQSPQLLIYWASTRESGVPDRFSGSGSGTDFTLKISRVEAEDLGVYYCQNDYTYPLTFGQGTKLEIK | – | – | – | 1.35 nM | 7.12e-05 s⁻¹ | 52700 M⁻¹ s⁻¹ | –
5 | 10-G6-C4-B2_hVH5-VL1_PTM (antibody, V domains shown, humanized, PTM-optimized antibody from 10-G6-C4-B2) VH: EVQLVESGGGLVQPGRSLRLSCTTSGFTLSDYYMSWVRQAPGKGLEWVGFMRNKANAYTTEYSASVRGRFTISRDTSKSIIYLQMNSLKTEDTAVYYCVRDREGRPFAYWGQGTLVTVSS VL: DIVMTQSPDSLAVSLGERATINCKSSQSLLNAINQKNFLTWYQQKPGQPPKLLIYWASTRESGVPDRFSGSGSGTDFTLTISSLQAEDLAVYYCQNDYTYPLTFGQGTKLEIK | – | – | – | 0.0929 nM | 1.37e-05 s⁻¹ | 147000 M⁻¹ s⁻¹ | –
6 | 10-G6-C4-B2_hVH5-VL3_PTM (antibody, V domains shown, humanized, PTM-optimized antibody from 10-G6-C4-B2) VH: EVQLVESGGGLVQPGRSLRLSCTTSGFTLSDYYMSWVRQAPGKGLEWVGFMRNKANAYTTEYSASVRGRFTISRDTSKSIIYLQMNSLKTEDTAVYYCVRDREGRPFAYWGQGTLVTVSS VL: DIQMTQSPSSLSASVGDRVTITCKSSQSLLNAINQKNFLTWYQQKPGKAPKLLIYWASTRESGVPSRFSGSGSGTDFTLTISSLQPEDLATYYCQNDYTYPLTFGQGTKLEIK | – | – | – | 0.00692 nM | 1.01e-06 s⁻¹ | 146000 M⁻¹ s⁻¹ | –
7 | 10-G6-C4-B2_hVH4-VL1_PTM (antibody, V domains shown, humanized, PTM-optimized antibody from 10-G6-C4-B2) VH: EVQLVESGGGLIQPGGSLRLSCATSGFTLSDYYMSWVRQPPGKGLEWVSFMRNKANAYTTEYSASVRGRFTISRDTSKSTIYLQMNSLRAEDTAVYYCVRDREGRPFAYWGQGTLVTVSS VL: DIVMTQSPDSLAVSLGERATINCKSSQSLLNAINQKNFLTWYQQKPGQPPKLLIYWASTRESGVPDRFSGSGSGTDFTLTISSLQAEDLAVYYCQNDYTYPLTFGQGTKLEIK | – | – | – | 1.73 nM | 0.000155 s⁻¹ | 89600 M⁻¹ s⁻¹ | –

Further lines, with some results ahead:

Row | EC50 of antibody induced ADCC effect on SKOV3 (human CD276 protein [2]) | EC50 (human CD276 protein [4]) | MFI (Max) (human CD276 protein [4]) | Kd [6] | koff [6] | kon [6] | Binder | further results
8 | 0.0419 µg/mL | 1.31 µg/mL | 3180 | – | – | – | 16-G3-D10-C10 (human IgG1 chimeric antibody) (antibody, V domains shown, human IgG1 chimeric antibody of the mouse clone) VH: QIQLVQSGPELKKPGETVKISCKASGYTFRNYGMNWVKQGPGKDLKWMGWINPYTGEPTYIGDFKGRFAFSLETSANSAYLQINNLNNEDMATYFCARDDGYWYTMDYWGQGTSVTVSS VL: DVVMTQTPPSLPVSLGDQASIPCRSSQSLVHSNGITYLHWYLQKPGQSPKLLIYKVSNRFSGVPDRFSGSGSGTDFTLKISRVEAEDLGVYFCSQSTHVPWTFGGGTKLEIK | EC50 of antibody induced CDC effect (human CD276 protein [1]): 1.43 nM; Top cytotoxicity (%), CDC (human CD276 protein [1]): 93.6%; Kd [3]: 1.16 nM; koff [3]: 0.000214 s⁻¹; kon [3]: 185000 M⁻¹ s⁻¹
9 | 0.0179 µg/mL | 0.523 µg/mL | 5540 | – | – | – | 22-E11-C3-F2 (human IgG1 chimeric antibody) (antibody, V domains shown, human IgG1 chimeric antibody of the mouse clone) VH: QIQLVQSGPELKRPGETVKISCKASGYSFTNYGMNWVKQAPGKGLKWMGWINPYTGEPTYADDFKGRFAMSLETSASAAYLQINNLKNEDMATYFCGRDDGYHYTMNYWGQGTSVTVSS VL: DVVMTQPPLSLPVSLGDQASISCRSSQSLIHSNGDTYLHWYLQKPGQSPKLLIYKVSIRFSGVPDRFSGSGSGTDFTLKISRVEAEDLGVYFCSQSTYVPWTFGGGTKLEIK | IC50 of indirect ADC cytotoxicity on SKOV3 (human CD276 protein [5]): 0.016 nM
10 | 0.876 µg/mL | 1.77 µg/mL | 3080 | – | – | – | 13-E4-G9-A4 (human IgG1 chimeric antibody) (antibody, V domains shown, human IgG1 chimeric antibody of the mouse clone) VH: EVMLVESGGGLVKPGGSLKFSCAASGFTFITYAMSWVRQTPEKRLEWVATISGGGIDTYYPDSVKGRFTISRDNAKNTLYLQVNSLRSEDTAMYYCTRQGSQGWGAMDYWGQGTSVTVSS VL: QIVLTQSPPIMSASPGERVTMTCRASSRVSFMHWYQQKSGTSPRRWIYETSKLASGVPDRFSGSVSGTSYSLTISSMEAEDAATYYCQQWSSNPLTFGAGTKLELK | IC50 of indirect ADC cytotoxicity on SKOV3 (human CD276 protein [5]): 0.021 nM
11 | 0.247 µg/mL | 0.814 µg/mL | 5630 | – | – | – | 30-E2-G7-G7 (human IgG1 chimeric antibody) (antibody, V domains shown, human IgG1 chimeric antibody of the mouse clone) VH: EVQLQESGGGLVKPGGSLKLSCAASGFTFSYYAMSWVRQTPEKRLEWVATINGDGSHTYYPDSVRGRFTISRDNAKNTLYLQVSSLRSEDTAMYYCASLLQLGPFWGQGTTLTVSS VL: DIVMTQSQKFMSTSVGDRVSVTCKASQNVGTNVAWYHQRPGQSPKPLIYSASYRYSGVPDRFTGSGSGTDFTLTISNVQSEDLAEYFCQQYNNYPLTFGSGTKLEIK | –
12 | 0.0655 µg/mL | 0.811 µg/mL | 3190 | – | – | – | 15-G1-D1-E3 (human IgG1 chimeric antibody) (antibody, V domains shown, human IgG1 chimeric antibody of the mouse clone) VH: QVQLQQPGAELVKPGTSVKLSCKASGYTFTSYWIHWVKQRPGQGLEWIGMIHPKSGTVDYNEKFKSKATLTADKSSNTAYMQLSSLTSEASVVYYCARGENYDYRPQFVYWGQGTLVTVSA VL: QLVLTQSSSASFSLGASAKLTCTLSSQHSTYTIEWYQQQPLKPPKYVMELKKDGSHRTGDGIPDRFSGSSSGADRYLSISNIQPEDEAIYICGVGDTIKEQFVYVFGGGTKVTVL | Kd [3]: 0.383 nM; koff [3]: 0.000211 s⁻¹; kon [3]: 550000 M⁻¹ s⁻¹
13 | 0.0238 µg/mL | 2.26 µg/mL | 3220 | – | – | – | 27-F8-E10-E11 (human IgG1 chimeric antibody) (antibody, V domains shown, human IgG1 chimeric antibody of the mouse clone) VH: EVQLQQSGPELVKPGASVKISCKTSGYTFTEYAMHWVKQSHGKILEWIGGINPNIGGTTYNQKFKDKATLTVDKSSSTASMELRSLTSEDSAVYYCARFLVPSTEGFTYWGQGTLVTVSA VL: QIVLTQSPAIMSASPGEKVTMTCSASSSVSYMHWYQQKSGTSPKRWIYDTSRVASGVPARFSGSGSGTSYSLTISSMEAEDAATYYCQQWSSNPLTFGAGTKLELK | Kd [3]: 0.621 nM; koff [3]: 0.000173 s⁻¹; kon [3]: 278000 M⁻¹ s⁻¹
